Laboratory results taken from the DeepSol protein solubility set.

Assay: soluble on expression in E. coli; label from the status in PepcDB or PDB records

Row | Sequence | soluble on expression in E. coli
1 | MSLAQAMKIAIVDDEQDMRQSISQWLALSGYDTETFASAEEALKVLGSEYPGIVISDIKMPGMDGMQFLKKLMGADSSLPVIMITGHGDVPMAVEAMRVGAFDFLEKPFNPDRMSDLAKRASNARRLTLDNRALRRELSDGGQIMKKLIGTSPVMERLREDILDLGQADGHVLIDGETGTGKTLVAHALHAVGSRAGKKFVLVSCSALEEEALAKRLFGPMIPEDAQLPAIEEARGGTLVLEDVESLSDALQAKLLSVMNQQGTPAETRIVAISNLQEAGKTSEDVLRPDLFYRLAALRLTMPPLRQRGEDILTLFTRLSEQFAEEYGCDAPQVSAQEAAQLLQAPWPGNVRQLINIAERAVLQARRGSGTIASLLMSDHEDEGHHHHHH | soluble
2 | MPAGTRCVTQGEAEKNGMIPTGIFCDYQNGQEMYCYSEGKPDLVISDVWAYNTTPGVYSELRALVYNHGHGYAGKFSVAFFIDGSYVGEVEVNGLGANENTVARISYPHPCEGETDTFAAQVDYHNEVDEENENDNYHESPRIFQCSGGEMPNLEVVEAYIDYQDFCRALNYRNSSIVVVVANTGEQASPQTGGWIYIDGNSRGGFDIPSLQPGEETTISMNFPYMCEGSSDEIRVVVDSRNYVVESNENDNEYTFITDCIPMPSGTADLVVSYLETHVVEELLAGGLSYPLKSEINYTVENLGEDYSCNAEVGLFIDGVFQGQQYLPPLAPGDSITRTFIAKYDWERCSGISDTLTLKADVNNDVAESNENNNERSVTLYCIEYPLIKPDLTVEDVWIEGEGASNLDIVFTVKNIGLAASRATNAYVGVNYNPAGSTPIPPLNAGESVELRISGFTAQWQENTIEVCADSGNLVDEIPNEMNNCLTKTITIEDVGCYDGVRNRDEVGVDCGGYYCVPAALLRLKGDCSIRMTMAAGFQLEHHHHHH | not soluble
3 | MGSDKIHHHHHHVSIPANNSPVRLALIGAGRWGKNYIRTIAGLPGAALVRLASSNPDNLALVPPGCVIESDWRSVVSAPEVEAVIIATPPATHAEITLAAIASGKAVLVEKPLTLDLAEAEAVAAAAKATGVMVWVEHTQLFNPAWEALKADLTSIGPILAVRSEAGNHGPYRPGGVPMLWDWGAHDVSMVLDLMGRDPDSTSASWAARGEKDGGEAGDVTLTLAFSTVEAHIRLCNTMDKCRRLAVFGEAGTLVMDDRATDKLTLHPPQPDGNWPVGQGHALTVTDEMPLTRAVRLFAGAVRQPEPGPSPLELGLRVVRVLGACS | not soluble
4 | MSLSQCQTLLSQINRRIESYENIPVFSFAQKLPLFDSNSTKLKLNSQTNEMMMELLSLVEQNKGKKILIVGHSDNTGSSSMNMTLSEQRALALRDWLIKRSDITVDNFITKGMGASEPVATNHTEAGREQNRRVEVLILPTQDRTRMTEPKPLEGHHHHHH | soluble
5 | DEAMLKIEQQEVVKNLPVGSKLVQLKYAGHSTDEPLLNQIYKEFEVTANILYGNIEILDGIPVGEMVVILSGDEEKLRQACQAITDSQVQLTLLKEGG | not soluble
6 | MLIWSPSVRIAANIRTDNPNSLKRNANMPQLTLDKTDIKILQVLQENGRLTNVELSERVALSPSPCLRRLKQLEDAGIVRQYAALLSPESVNLGLQAFIRVSIRKAKDAREDFAASVRKWPEVLSCFALTGETDYLLQAFFTDMNAFSHFVLDTLLSHHGVQDAQSSFVLKEIKHTTSLPLNHLLKE | not soluble
7 | METTSVFRADFLSELDAPAQAGTESAVSGVEGLPPGSALLVVKRGPNAGSRFLLDQAITSAGRHPDSDIFLDDVTVSRRHAEFRLENNEFNVVDVGSLNGTYVNREPVDSAVLANGDEVQIGKFRLVFLTGPKQGEDLEHHHHHH | not soluble
8 | MPDAQILSTHEHGVVVALGDIRTADSITTVVAGVGSANPTQWLNYVERAQHIQQATGGAAVAWLGYNAPANVAAAAAQTPAQQGASQLQKFQKELRTLNPKARLMVFGHSYGSVVAGHAVAHGLDADTFIVAGSPGVPPNPQLHSPNPRLISVLGSHDIIGLTGTNTVAAHGIDPSALSAQDAGFERWGVAGGHESYFTDKRLEHHHHHH | not soluble
9 | GSPGIPMVAAHAAHSQSSAEWIACLDKRPLERSSEDVDIIFTRLKGVKAFEKFHPNLLRQICLCGYYENLEKGITLFRQGDIGTNWYAVLAGSLDVKVSETSSHQDAVTICTLGIGTAFGESILDNTPRHATIVTRESSELLRIEQEDFKALWEKYRQYMAGLLAPPYGVMETGSNNDRIPDKENVPSEKILRAGKILRIAILSRAPHMIRDRKYHLKTYRQCCVGTELVDWMIQQTSCVHSRTQAVGMWQVLLEDGVLNHVDQERHFQDKYLFYRFLDDEREDAPLPTEEEKKECDEELQDTMLLLSQMGPDAHMRMILRKPPGQRTVDDLEIIYDELLHIKALSHLSTTVKRELAGVLIFESHAKGGTVLFNQGEEGTSWYIILKGSVNVVIYGKGVVCTLHEGDDFGKLALVNDAPRAASIVLREDNCHFLRVDKEDFNRILRDVEANTVRLKEHDQDVLVLEKVPAGNRAANQGNSQPQQKYTVMSGTPEKILEHFLETIRLEPSLNEATDSVLNDFVMMHCVFMPNTQLCPALVAHYHAQPSQGTEQERMDYALNNKRRVIRLVLQWAAMYGDLLQEDDVAMAFLEEFYVSVSDDARMMAAFKEQLPELEKIVKQISEDAKAPQKKHKVLLQQFNTGDERAQKRQPIRGSDEVLFKVYCIDHTYTTIRVPVAASVKEVISAVADKLGSGEGLIIVKMNSGGEKVVLKSNDVSVFTTLTINGRLFACPREQFDSLTPLPEQEGPTTGTVGTFELMSSKDLAYQMTTYDWELFNCVHELELIYHTFGRHNFKKTTANLDLFLRRFNEIQFWVVTEVCLCSQLSKRVQLLKKFIKIAAHCKEYKNLNSFFAIVMGLSNVAVSRLALTWEKLPSKFKKFYAEFESLMDPSRNHRAYRLTAAKLEPPLIPFMPLLIKDMTFTHEGNKTFIDNLVNFEKMRMIANTARTVRYYRSQPFNPDAAQANKNHQDVRSYVRQLNVIDNQRTLSQMSHRLEPRRP | soluble
10 | MQNISIAENNRTGIPVQSLSYEQAAKGPTGSIMTEGYAKAIANYAYVWGWPMVNMHNRREAFKQVPYQGYIGGAMPAAPINHLTMLSDYVSPNMRDVAHPNQDVVYGFGMLSLDKEPVVIQVPDFGDRFWTVMAEDQRTDSFAQLSSIYDSKPGFYMIVSPEWDGEIPEGINKVFRSSTDLAVVIPRVFMDDTAEDREAIQSVVNQLGAYPLSEFTGIMKITNWKSLPNIPEAKKTKSEKTWVNPNMFFSAEQLGKVLEEVSPLPGEEAMYAQFKELLLQAEENKELQKILNDVANEAEMNIVTPLFRLENVGKEINNYWTRPQDNGRFGTDYLTRLAVAKSNIFTNDVTETSYLYQYKDENGTRINGNHNYTLTFKKGELPPVDGFWSLTMYNSNHFFVPNDIKRYSIGTKNKGMKYNKDGSLTIYIQNEKPSEDKIGNWLPAPKDDIAMTIRAYGPKEEMLSGTWQPPAVVKIKLEHHHHHH | soluble
11 | MSVRLPLLLRQLGRQQLPSGPACRLRELCRSGSRSSSSGGGDPEGLRGRRLQDGQTFSSHGPGNPEAPGMDSIVRDVIHNSKEVLSLLQEKNPAFKPVLVVIQAGDDNLMKDMNQNLAKEAGLDITHICLPPDSGEDEIIDEILKINEDPRVHGLTLQISEDSLSNKVLNALKPEKDVDGVTDINLGKLVRGDAPECFVSPLAKAAVELVEKSGITLDGKKVLVVGAHGPLEAALQWLFQRKGFMTMSCPWAPPQLPDKLREADIVVLGSPKPEEIPAVWIPSGTTILNCFHDFLSGKLSGGSPGVPVDKLIAEESVSLLAAALRIQNMVSSGRRWLREQQHRRWRLHCLKLQPLSPVPSDIEISRGQTPKAVDVLAKEIGLLADEIEIYGKSKAKVQLSLLERLKDQTDGKYVLVAGITPTPLGEGKSTVTIGLVQALTAHLKVNSFACLRQPSQGPTFGVKGGAAGGGYAQVIPMEEFNLHLTGDIHAITAANNLLAAAIDTRILHESTQTDKALYNRLVPLVNGVREFSEIQLSRLKKLGIHKTDPSTLTEEEVRKFARLNIDPATITWQRVLDTNDRFLRKITIGQGSTEKGYSRQAQFDIAVASEIMAVLALTDSLTDMKERLGRMVVASDKDGQPVTAEDLGVTSALTVLMKDAIKPNLMQTLEGTPVFVHPGPFANIAHANSSVLTDKIALKFVGEEGFVVTEAGFGADIGMEKFFNIKCRASGLVPNVVVLVATVRALKMHVGGPSVTAGVPLKKEYTEENIQMVADGCCNLQKQIQIAQLFGVPVVVALNVFKTDTRAEIDLVCELAKRAGAFDAVPCYHWSAGGKGSVDLARAVREAANKRSRFQFLYDVQLPIVEKIRVIAQTVYGAKDIELSPEAQSKIDRYTQQGFGNLPICMAKTHLSLSHEPDKKGVPRDFTLPISDVRASIGAGFIYPLVGTMSTMPGLPTRPCFYDIDLDTETEQVKGLF | soluble
